Laboratory results reported in patent publication US8003599B2, “Inhibitors of L1 and ADAM10 for the treatment of carcinomas” (Deutsches Krebsforschungszentrum, priority 2004, dated 2011).

Test system: HEK293 cells
Experiment: Haptotactic cell migration assay in Transwell chambers, HEK293 cells
Assay type: cell-based, human
Description: (C) Inhibition of haptotactic cell migration in the absence or presence of the indicated mAbs to integrins at a final concentration of 10 μg/ml. FN at 10 μg/ml or BSA for control were coated onto the backside of Transwell chambers. Cells were seeded into the top chamber and allowed to transmigrate for 16 hr at 37° C. The antibody was present during the assay time. Each determination was done in quadruplicate and transmigrated cells were stained from the back of the filter. The dye was eluted from the filter and measured at 595 nm. The amount of dye is proportional to the number of transmigrated cells. Values for the migration on BSA were below 0.25 O.D. units for each cell type.
The haptotactic cell migration assay on fibronectin, laminin or BSA was performed in Transwell chambers (Costar, 6.5 mm diameter, 5 um pore size) and was described in detail elsewhere (Mechtersheimer et al., supra). Transmigrated cells were quantified by staining of the transwell membranes with cristalviolet solution as described (Mechtersheimer at al., supra). The eluted dye was measured at 595 nm in an ELISA reader.

Row | Molecule | induction of cell migration by ascites derived soluble L1 (fibronectin as substrate (FIG. 4B)) | induction of HEK293 migration by L1mutSH3-HEK293 supernatant (conditioned medium concentrated tenfold)
1 | soluble L1: affinity purified soluble L1 from ascites fluid of ovarian carcinoma patients, 150 kDa and 200 kDa (protein) IQIPEEYEGHHVMEPPVITEQSPRRLVVFPTDDISLKCEASGKPEVQFRWTRDGVHFKPKEELGVTVYQSPHSGSFTITGNNSNFAQRFQGIYRCFASNKLGTAMSHEIRLMAEGAPKWPKETVKPVEVEEGESVVLPCNPPPSAEPLRIYWMNSKILHIKQDERVTMGQNGNLYFANVLTSDNHSDYICHAHFPGTRTIIQKEPIDLRVKATNSMIDRKPRLLFPTNSSSHLVALQGQPLVLECIAEGFPTPTIKWLRPSGPMPADRVTYQNHNKTLQLLKVGEEDDGEYRCLAENSLGSARHAYYVTVEAAPYWLHKPQSHLYGPGETARLDCQVQGRPQPEVTWRINGIPVEELAKDQKYRIQRGALILSNVQPSDTMVTQCEARNRHGLLLANAYIYVVQLPAKILTADNQTYMAVQGSTAYLLCKAFGAPVPSVQWLDEDGTTVLQDERFFPYANGTLGIRDLQANDTGRYFCLAANDQNNVTIMANLKVKDATQITQGPRSTIEKKGSRVTFTCQASFDPSLQPSITWRGDGRDLQELGDSDKYFIEDGRLVIHSLDYSDQGNYSCVASTELDVVESRAQLLVVGSPGPVPRLVLSDLHLLTQSQVRVSWSPAEDHNAPIEKYDIEFEDKEMAPEKWYSLGKVPGNQTSTTLKLSPYVHYTFRVTAINKYGPGEPSPVSETVVTPEAAPEKNPVDVKGEGNETTNMVITWKPLRWMDWNAPQVQYRVQWRPQGTRGPWQEQIVSDPFLVVSNTSTFVPYEIKVQAVNSQGKGPEPQVTIGYSGEDYPQAIPELEGIEILNSSAVLVKWRPVDLAQVKGHLRGYNVTYWREGSQRKHSKRHIHKDHVVVPANTTSVILSGLRPYSSYHLEVQAFNGRGSGPASEFTFSTPEGVPGHPEALHLECQSNTSLLLRWQPPLSHNGVLTGYVLSYHPLDEGGKGQLSFNLRDPELRTHNLTDLSPHLRYRFQLQATTKEGPGEAIVREGGTMALSGISDFGNISATAGENYSVVSWVPKEGQCNFRFHILFKALGEEKGGASLSPQYVSYNQSSYTQWDLQPDTDYEIHLFKERMFRHQMAVKTNGTGRVRLPPAGFATE | potent dose-dependent inducer of cell migration | –
2 | soluble L1 released from HEK293-hL1mutSH3 cells: supernatant collected from HEK293-hL1mutSH3 cells, concentrated tenfold (protein, UniProt P32004 20-1120, looked up, extracellular domain from SH3-motif mutant L1, supernatant collected from HEK293-hL1mutSH3 cells, concentrated tenfold) extracellular domain: IQIPEEYEGHHVMEPPVITEQSPRRLVVFPTDDISLKCEASGKPEVQFRWTRDGVHFKPKEELGVTVYQSPHSGSFTITGNNSNFAQRFQGIYRCFASNKLGTAMSHEIRLMAEGAPKWPKETVKPVEVEEGESVVLPCNPPPSAEPLRIYWMNSKILHIKQDERVTMGQNGNLYFANVLTSDNHSDYICHAHFPGTRTIIQKEPIDLRVKATNSMIDRKPRLLFPTNSSSHLVALQGQPLVLECIAEGFPTPTIKWLRPSGPMPADRVTYQNHNKTLQLLKVGEEDDGEYRCLAENSLGSARHAYYVTVEAAPYWLHKPQSHLYGPGETARLDCQVQGRPQPEVTWRINGIPVEELAKDQKYRIQRGALILSNVQPSDTMVTQCEARNRHGLLLANAYIYVVQLPAKILTADNQTYMAVQGSTAYLLCKAFGAPVPSVQWLDEDGTTVLQDERFFPYANGTLGIRDLQANDTGRYFCLAANDQNNVTIMANLKVKDATQITQGPRSTIEKKGSRVTFTCQASFDPSLQPSITWRGDGRDLQELGDSDKYFIEDGRLVIHSLDYSDQGNYSCVASTELDVVESRAQLLVVGSPGPVPRLVLSDLHLLTQSQVRVSWSPAEDHNAPIEKYDIEFEDKEMAPEKWYSLGKVPGNQTSTTLKLSPYVHYTFRVTAINKYGPGEPSPVSETVVTPEAAPEKNPVDVKGEGNETTNMVITWKPLRWMDWNAPQVQYRVQWRPQGTRGPWQEQIVSDPFLVVSNTSTFVPYEIKVQAVNSQGKGPEPQVTIGYSGEDYPQAIPELEGIEILNSSAVLVKWRPVDLAQVKGHLRGYNVTYWREGSQRKHSKRHIHKDHVVVPANTTSVILSGLRPYSSYHLEVQAFNGRGSGPASEFTFSTPEGVPGHPEALHLECQSNTSLLLRWQPPLSHNGVLTGYVLSYHPLDEGGKGQLSFNLRDPELRTHNLTDLSPHLRYRFQLQATTKEGPGEAIVREGGTMALSGISDFGNISATAGENYSVVSWVPKEGQCNFRFHILFKALGEEKGGASLSPQYVSYNQSSYTQWDLQPDTDYEIHLFKERMFRHQMAVKTNGTGRVRLPPAGFATE | – | able to induce migration
